In the assay the target is Epidermal growth factor receptor (EGFR), labelled for MST (UniProt P00533). The assay is described as follows: MST.

“FIP-nha, a fungal immunomodulatory protein from Nectria haematococca (natural protein)”: the Kd (in general, a measure of binding affinity in units of concentration) stood at 15.5 µM.
